This assay addresses bat RaTG13 spike (S) glycoprotein ectodomain (bat coronavirus RaTG13). The assay can be described thus: BLI.

The text below walks through data of publication PMC7610980.

Chain of human ACE2 ectodomain (residues 19-615) (Q9BYF1 19-615): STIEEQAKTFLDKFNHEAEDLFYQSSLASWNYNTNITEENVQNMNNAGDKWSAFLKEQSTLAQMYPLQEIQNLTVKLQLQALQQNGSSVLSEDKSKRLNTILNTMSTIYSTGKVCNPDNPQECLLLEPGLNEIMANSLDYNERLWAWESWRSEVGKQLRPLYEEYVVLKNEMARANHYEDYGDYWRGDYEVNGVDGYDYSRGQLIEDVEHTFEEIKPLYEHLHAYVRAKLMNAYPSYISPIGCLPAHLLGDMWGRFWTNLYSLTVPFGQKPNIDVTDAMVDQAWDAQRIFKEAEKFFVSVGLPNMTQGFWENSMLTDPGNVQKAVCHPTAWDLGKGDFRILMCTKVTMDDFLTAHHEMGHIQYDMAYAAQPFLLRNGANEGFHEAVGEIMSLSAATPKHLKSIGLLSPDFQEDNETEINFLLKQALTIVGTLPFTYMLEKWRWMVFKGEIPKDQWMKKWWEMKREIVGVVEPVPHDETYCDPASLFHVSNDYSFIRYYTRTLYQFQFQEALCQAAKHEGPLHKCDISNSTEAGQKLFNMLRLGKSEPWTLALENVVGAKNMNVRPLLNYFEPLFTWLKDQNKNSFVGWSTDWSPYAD

As a reminder, the Kd is the free concentration of one partner at which half of the binding sites on the other are occupied at equilibrium, for simple one-to-one binding. In the case of “human ACE2 ectodomain (residues 19-615) (from UniProt Q9BYF1-1 19-615) (receptor)”, the dissociation constant (Kd) was more than 40 µM.
